Test [1] concerns Nalm6 (CD45-). In words: Cell viability assay 5 days (PrestoBlue), Nalm6. It counts as cell-based, human. The conditions noted are these: rat IgG2b ADC, n=3. The procedure: (§1) OCIM1, Jurkat and Nalm6 cells were seeded at a final concentration of 1.275×10^4/mL and for 5 days in presence of rat IgG2b Mab or ADC or medium (in triplicate) in wells of flat bottom 96-well plates. 293T cells were seeded at 9.3×10^3 cells per 100 uL per well in flat bottom 96-well plates and allowed to adhere the plate for up to 24 hours. 293T cells were subsequently cultured with rat IgG2b Mabs or ADC or medium (in triplicate wells) as described above. PrestoBlue® Cell viability Reagent (Thermo Fisher Scientific) was added to each and incubated for up to 1.5 hours. Fluorescence intensity from each well was detected using a FLUOstar OPTIMA microplate reader (BMG Labtech). Data was plotted using Prism 8.0 and sigmoid dose-response non-linear regression was used to determine EC50 values. Data points are mean±s.d. for representative experiments.

Test [2] deals with fLuc+ OCIM1 cells. As to the kind of experiment: Established AML model in NSG mice, treatment 10 days post-injection. It is filed as in vivo. The procedure: (§2) NSG mice were transplanted with 7.5×10^6 fLuc+ OCIM1 cells i.v. At 10 days post-injection of AML cells, unconjugated antibody or ADCs were injected i.v. via a tail vein at a dose of 1 mg/kg or 5 mg/kg. Mice were regularly monitored for signs of morbidity for the duration of the experiment. For imaging, mice were injected intraperitoneally with 200 μl of 15 mg/mL D-luciferin (Regis Technologies) in PBS. Mice were subsequently anesthetized with 4% isoflurane and maintained at 2% isoflurane. Ten minutes after injection of D-luciferin, mice were placed with anterior side up inside a IVIS Lumina III (PerkinElmer). A sub-saturating image was captured using the auto-exposure setting in the Living Image software (v4.5). Quantification and preparation of images was also carried out using the same software.

Test [3] concerns 293T (CD45-). As to the kind of experiment: Cell viability assay 5 days (PrestoBlue), 293T. It is filed as cell-based, human. As to conditions: rat IgG2b ADC, n=3. The procedure: as §1
For test [4], the system named is human CD45+ cells. In words: Allogeneic stem cell transplant model in humanized NSG mice, comparison of payloads. It is filed as in vivo. As to conditions: 1 mg/kg. As for the experimental part: Adult NSG mice (Charles River Laboratories) were sublethally irradiated with 2.5 Gy in a ^137Cs irradiator. On the following day, mice were injected with 0.5×10^6 freshly thawed cryopreserved human CD34+ cells from a health donor were injected via the tail vein in 150 μL PBS using a 29 gauge MicroFine Plus insulin syringe (BD). Engraftment of human cells in the blood was assessed periodically from 6 weeks after transplantation. At 10 weeks post-transplant, humanized NSG mice were assigned into cohorts with similar median human CD45+ cell engraftment in the blood, as determined by flow cytometry. Mice were injected with PBS or 1 mg/kg YTH24.5-B1. Sixteen 16 days after treatment, mice were transplanted with 0.5×10^6 GFP+CD34+ cells from another healthy donor. Irradiated NSG […] were also transplanted with the GFP+CD34+ from the allogeneic healthy donor as a control for engraftment of the GFP+CD34+ cells. 8 weeks after transplantation of GFP+ cells, mice were culled and blood, spleen and bone marrow taken for analysis by flow cytometry.
Experimental schedule is as previously described in example 16 but with the following modifications. Humanized NSG mice at 10 weeks post-transplant were injected with PBS or 1 mg/kg YTH24.5-B1, YTH54.12-B1, Isotype-B1, YTH24.5-B4 and Isotype-3376. Isotype-B2 and YTH24.5-B2 was given at a dose of 5 mg/kg. Transplantation of 0.5×10^6 GFP+CD34+ from an allogeneic human donor and analysis at 8 weeks post-transplant of GFP+ cells was carried out as previously described.

The subject of test [5] is fLuc+ OCIM1 cells. In words: AML model in NSG mice, treatment the day after cell injection. It counts as in vivo. The conditions noted are these: for tumor (bioluminescence) signal: 1 mg/kg or 5 mg/kg i.v. the day after OCIM1 injection. As for the experimental part: as §2, with “7.5×10^6 luciferase expressing” for “7.5×10^6”, “On the following day,” for “At 10 days post-injection of AML cells,”, “rat IgG2b antibodies” for “antibody”

B1: YTH54.12-B4: rat IgG2b anti-CD45 antibody YTH54.12 conjugated to non-cleavable PBD drug-linker B4 (drawing 46) (conjugate)
heavy: EVQLVESGGGLVQPGGSMKLSCAASGFTFSDYYMAWVRQAPKKGLEWVASMSFAGSSTYYGDSVKGRFTISRDNAKTTLYLQMNSLRSEDTATYYCARMYTTDYYLYWYFDFWGPGTMVTVSSAQTTAPSVYPLAPGCGDTTSSTVTLGCLVKGYFPEPVTVTWNSGALSSDVHTFPAVLQSGLYTLTSSVTSSTWPSQTVTCNVAHPASSTKVDKKVERRNGGIGHKCPTCPTCHKCPVPELLGGPSVFIFPPKPKDILLISQNAKVTCVVVDVSEEEPDVQFSWFVNNVEVHTAQTQPREEQYNSTFRVVSALPIQHQDWMSGKEFKCKVNNKALPSPIEKTISKPKGLVRKPQVYVMGPPTEQLTEQTVSLTCLTSGFLPNDIGVEWTSNGHIEKNYKNTEPVMDSDGSFFMYSKLNVERSRWDSRAPFVCSVVHEGLHNHHVEKSISRPPGK
light: DVQMTQSPSYLAASPGESVSISCKASKSISNYLAWYQQKPGEANKILIYSGSTLQSGTPSRFSGSGSGTDFSLTIRNLEPEDFAVYYCQQYDEKPLTFGSGTKLEIKRADAAPTVSIFPPSMEQLTSGGATVVCFVNNFYPRDISVKWKIDGSEQRDGVLDSVTDQDSKDSTYSMSSTLSLTKVEYERHNLYTCEVVHKTSSSPVVKSFNRNEC
By EC50 is commonly meant the midpoint of the concentration-response curve. A lower EC50 goes with greater potency. Regarding B1, the figures for the EC50 in test [1] and in test [3] were 0.715 nM and over 6 nM, respectively. For the same molecule, the “mice alive at 60 days” value in test [2] (cohorts of 5 mice, all tumor-bearing) is listed as 4/5.

B2: YTH54.12-B7: rat IgG2b anti-CD45 antibody YTH54.12 conjugated to PBD drug-linker B7 (drawing 49) (conjugate)
heavy: EVQLVESGGGLVQPGGSMKLSCAASGFTFSDYYMAWVRQAPKKGLEWVASMSFAGSSTYYGDSVKGRFTISRDNAKTTLYLQMNSLRSEDTATYYCARMYTTDYYLYWYFDFWGPGTMVTVSSAQTTAPSVYPLAPGCGDTTSSTVTLGCLVKGYFPEPVTVTWNSGALSSDVHTFPAVLQSGLYTLTSSVTSSTWPSQTVTCNVAHPASSTKVDKKVERRNGGIGHKCPTCPTCHKCPVPELLGGPSVFIFPPKPKDILLISQNAKVTCVVVDVSEEEPDVQFSWFVNNVEVHTAQTQPREEQYNSTFRVVSALPIQHQDWMSGKEFKCKVNNKALPSPIEKTISKPKGLVRKPQVYVMGPPTEQLTEQTVSLTCLTSGFLPNDIGVEWTSNGHIEKNYKNTEPVMDSDGSFFMYSKLNVERSRWDSRAPFVCSVVHEGLHNHHVEKSISRPPGK
light: DVQMTQSPSYLAASPGESVSISCKASKSISNYLAWYQQKPGEANKILIYSGSTLQSGTPSRFSGSGSGTDFSLTIRNLEPEDFAVYYCQQYDEKPLTFGSGTKLEIKRADAAPTVSIFPPSMEQLTSGGATVVCFVNNFYPRDISVKWKIDGSEQRDGVLDSVTDQDSKDSTYSMSSTLSLTKVEYERHNLYTCEVVHKTSSSPVVKSFNRNEC
With B2, the EC50 in test [1] was 1.56 nM; in test [3] it was over 6 nM.

B3: YTH54.12-B2: rat IgG2b anti-CD45 antibody YTH54.12 conjugated to PBD drug-linker B2 (drawing 44) (conjugate)
heavy: EVQLVESGGGLVQPGGSMKLSCAASGFTFSDYYMAWVRQAPKKGLEWVASMSFAGSSTYYGDSVKGRFTISRDNAKTTLYLQMNSLRSEDTATYYCARMYTTDYYLYWYFDFWGPGTMVTVSSAQTTAPSVYPLAPGCGDTTSSTVTLGCLVKGYFPEPVTVTWNSGALSSDVHTFPAVLQSGLYTLTSSVTSSTWPSQTVTCNVAHPASSTKVDKKVERRNGGIGHKCPTCPTCHKCPVPELLGGPSVFIFPPKPKDILLISQNAKVTCVVVDVSEEEPDVQFSWFVNNVEVHTAQTQPREEQYNSTFRVVSALPIQHQDWMSGKEFKCKVNNKALPSPIEKTISKPKGLVRKPQVYVMGPPTEQLTEQTVSLTCLTSGFLPNDIGVEWTSNGHIEKNYKNTEPVMDSDGSFFMYSKLNVERSRWDSRAPFVCSVVHEGLHNHHVEKSISRPPGK
light: DVQMTQSPSYLAASPGESVSISCKASKSISNYLAWYQQKPGEANKILIYSGSTLQSGTPSRFSGSGSGTDFSLTIRNLEPEDFAVYYCQQYDEKPLTFGSGTKLEIKRADAAPTVSIFPPSMEQLTSGGATVVCFVNNFYPRDISVKWKIDGSEQRDGVLDSVTDQDSKDSTYSMSSTLSLTKVEYERHNLYTCEVVHKTSSSPVVKSFNRNEC
For the molecule B3, the EC50 in test [1] was 0.0279 nM; in test [3], over 6 nM.

B4: YTH24.5-B4: rat IgG2b anti-CD45 antibody YTH24.5 conjugated to non-cleavable PBD drug-linker B4 (drawing 46) (conjugate)
heavy: QVNLLQSGAALVKPGASVKLSCKASSYTFTDYYIHWVKQSHGKTLEWIGYINPKSGFTNYNEKFRRKATLTVDKSTNTAYMDISRLTSEDSATYYCTRRTGVIPMDAWGQGASVTVSSAQTTAPSVYPLAPGCGDTTSSTVTLGCLVKGYFPEPVTVTWNSGALSSDVHTFPAVLQSGLYTLTSSVTSSTWPSQTVTCNVAHPASSTKVDKKVERRNGGIGHKCPTCPTCHKCPVPELLGGPSVFIFPPKPKDILLISQNAKVTCVVVDVSEEEPDVQFSWFVNNVEVHTAQTQPREEQYNSTFRVVSALPIQHQDWMSGKEFKCKVNNKALPSPIEKTISKPKGLVRKPQVYVMGPPTEQLTEQTVSLTCLTSGFLPNDIGVEWTSNGHIEKNYKNTEPVMDSDGSFFMYSKLNVERSRWDSRAPFVCSVVHEGLHNHHVEKSISRPPGK
light: DVVMTQTPVSLSVSLGGQVSISCRSSQSFVSSDGNTYLNWYLQKPGQSPQLLIYKVSNRLSGVPDRFSGSGSGTDFTLKISRVEHDDLGVYYCGQASKIPLTFGSGTKLEIKRADAAPTVSIFPPSMEQLTSGGATVVCFVNNFYPRDISVKWKIDGSEQRDGVLDSVTDQDSKDSTYSMSSTLSLTKVEYERHNLYTCEVVHKTSSSPVVKSFNRNEC
For the molecule B4, the EC50 in test [1] was 0.162 nM; in test [3], over 6 nM. In addition, in test [4], the “percentage GFP+ human CD34+ cells in the bone marrow (mean)” value is recorded as 57.95%. In addition, the “mean % hCD45+ engraftment in the bone marrow” value in test [4] (8 weeks after allogeneic GFP+ cells, PBS 14.12%) was 7.34%. The “period of tumor regression / low tumor signal” value in test [2] is listed as “marginally longer period of low tumor signal than YTH24.5-B1”. The “tumor (bioluminescence) signal” value in test [5] was “Low/absent tumor signal”.

B5: YTH24.5-B7: rat IgG2b anti-CD45 antibody YTH24.5 conjugated to PBD drug-linker B7 (drawing 49) (conjugate)
heavy: QVNLLQSGAALVKPGASVKLSCKASSYTFTDYYIHWVKQSHGKTLEWIGYINPKSGFTNYNEKFRRKATLTVDKSTNTAYMDISRLTSEDSATYYCTRRTGVIPMDAWGQGASVTVSSAQTTAPSVYPLAPGCGDTTSSTVTLGCLVKGYFPEPVTVTWNSGALSSDVHTFPAVLQSGLYTLTSSVTSSTWPSQTVTCNVAHPASSTKVDKKVERRNGGIGHKCPTCPTCHKCPVPELLGGPSVFIFPPKPKDILLISQNAKVTCVVVDVSEEEPDVQFSWFVNNVEVHTAQTQPREEQYNSTFRVVSALPIQHQDWMSGKEFKCKVNNKALPSPIEKTISKPKGLVRKPQVYVMGPPTEQLTEQTVSLTCLTSGFLPNDIGVEWTSNGHIEKNYKNTEPVMDSDGSFFMYSKLNVERSRWDSRAPFVCSVVHEGLHNHHVEKSISRPPGK
light: DVVMTQTPVSLSVSLGGQVSISCRSSQSFVSSDGNTYLNWYLQKPGQSPQLLIYKVSNRLSGVPDRFSGSGSGTDFTLKISRVEHDDLGVYYCGQASKIPLTFGSGTKLEIKRADAAPTVSIFPPSMEQLTSGGATVVCFVNNFYPRDISVKWKIDGSEQRDGVLDSVTDQDSKDSTYSMSSTLSLTKVEYERHNLYTCEVVHKTSSSPVVKSFNRNEC
With B5, the EC50 in test [1] was 0.905 nM; in test [3], over 6 nM. The “tumor (bioluminescence) signal” value in test [5] is given as “Increasing tumor signal in three mice”. In test [5] (1 mg/kg or 5 mg/kg i.v., cohorts of 5 mice), the “mice developing tumor / tumor signal” value is 3/5.

Values taken from patent publication US20220096654A1, “PYRROLOBENZODIAZEPINE-ANTIBODY CONJUGATES AND USES THEREOF” (ADC THERAPEUTICS SA, priority 2020, published 2022).
